First the molecules themselves.
B1: Catenin alpha-3 (Homo sapiens), Q9UI47-2 (parent)
chain: MSAETPITLNIDPQDLQVQTFTVEKLLEPLIIQVTTLVNCPQNPSSRKKGRSKRASVLLASVEEATWNLLDKGEKIAQEATVLKDELTASLEEVRKESEALKVSAERFTDDPCFLPKREAVVQAARALLAAVTRLLILADMIDVMCLLQHVSAFQRTFESLKNVANKSDLQKTYQKLGKELENLDYLAFKRQQDLKSPNQRDEIAGARASLKENSPLLHSICSACLEHSDVASLKASKDTVCEEIQNALNVISNASQGIQNMTTPPEPQAATLGSALDELENLIVLNPLTVTEEEIRPSLEKRLEAIISGAALLADSSCTRDLHRERIIAECNAIRQALQDLLSEYMNNAGKKERSNTLNIALDNMCKKTRDLRRQLRKAIIDHVSDSFLDTTVPLLVLIEAAKNGREKEIKEYAAIFHEHTSRLVEVANLACSMSTNEDGIKIVKIAANHLETLCPQIINAALALAARPKSQAVKNTMEMYKRTWENHIHVLTEAVDDITSIDDFLAVSGMFLFF
partner: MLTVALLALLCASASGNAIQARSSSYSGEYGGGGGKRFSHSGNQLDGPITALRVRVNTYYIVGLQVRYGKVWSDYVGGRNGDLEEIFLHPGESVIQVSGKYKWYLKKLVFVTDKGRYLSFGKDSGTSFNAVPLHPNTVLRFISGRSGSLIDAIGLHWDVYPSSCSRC
B2: Catenin alpha-3 (Homo sapiens), Q9UI47-2 (parent)
chain: B1 chain
B3: Transmembrane protein 43 (Homo sapiens), Q9BTV4 (parent)
chain: MAANYSSTSTRREHVKVKTSSQPGFLERLSETSGGMFVGLMAFLLSFYLIFTNEGRALKTATSLAEGLSLVVSPDSIHSVAPENEGRLVHIIGALRTSKLLSDPNYGVHLPAVKLRRHVEMYQWVETEESREYTEDGQVKKETRYSYNTEWRSEIINSKNFDREIGHKNPSAMAVESFMATAPFVQIGRFFLSSGLIDKVDNFKSLSLSKLEDPHVDIIRRGDFFYHSENPKYPEVGDLRVSFSYAGLSGDDPDLGPAHVVTVIARQRGDQLVPFSTKSGDTLLLLHHGDFSAEEVFHRELRSNSMKTWGLRAAGWMAMFMGLNLMTRILYTLVDWFPVFRDLVNIGLKAFAFCVATSLTLLTVAAGWLFYRPLWALLIAGLALVPILVARTRVPAKKLE
B4: Ceroid-lipofuscinosis neuronal protein 6 (Homo sapiens), Q9NWW5 (parent)
chain: MEATRRRQHLGATGGPGAQLGASFLQARHGSVSADEAARTAPFHLDLWFYFTLQNWVLDFGRPIAMLVFPLEWFPLNKPSVGDYFHMAYNVITPFLLLKLIERSPRTLPRSITYVSIIIFIMGASIHLVGDSVNHRLLFSGYQHHLSVRENPIIKNLKPETLIDSFELLYYYDEYLGHCMWYIPFFLILFMYFSGCFTASKAESLIPGPALLLVAPSGLYYWYLVTEGQIFILFIFTFFAMLALVLHQKRKRLFLDSNGLFLFSSFALTLLLVALWVAWLWNDPVLRKKYPGVIYVPEPWAFYTLHVSSRH
partner: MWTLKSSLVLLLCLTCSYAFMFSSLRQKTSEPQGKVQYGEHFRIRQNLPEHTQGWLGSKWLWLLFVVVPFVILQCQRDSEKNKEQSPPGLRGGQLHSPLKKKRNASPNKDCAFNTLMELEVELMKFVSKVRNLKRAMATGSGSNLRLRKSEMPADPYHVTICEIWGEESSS
B5: Ceroid-lipofuscinosis neuronal protein 6 (Homo sapiens), Q9NWW5 (parent)
chain: B4 chain
partner: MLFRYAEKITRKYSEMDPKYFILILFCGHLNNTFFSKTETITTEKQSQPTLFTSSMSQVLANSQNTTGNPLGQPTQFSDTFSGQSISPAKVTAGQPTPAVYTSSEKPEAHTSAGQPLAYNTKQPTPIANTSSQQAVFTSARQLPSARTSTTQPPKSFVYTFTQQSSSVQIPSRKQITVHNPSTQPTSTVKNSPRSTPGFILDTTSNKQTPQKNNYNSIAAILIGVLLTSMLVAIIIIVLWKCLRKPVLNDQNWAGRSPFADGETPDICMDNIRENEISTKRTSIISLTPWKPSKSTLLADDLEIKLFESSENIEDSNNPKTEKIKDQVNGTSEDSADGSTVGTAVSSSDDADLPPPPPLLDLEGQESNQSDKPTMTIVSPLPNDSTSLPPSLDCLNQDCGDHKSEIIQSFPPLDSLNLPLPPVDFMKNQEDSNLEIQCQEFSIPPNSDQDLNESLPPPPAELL
B6: Very-long-chain enoyl-CoA reductase (Homo sapiens), Q9NZ01 (parent)
chain: MKHYEVEILDAKTREKLCFLDKVEPHATIAEIKNLFTKTHPQWYPARQSLRLDPKGKSLKDEDVLQKLPVGTTATLYFRDLGAQISWVTVFLTEYAGPLFIYLLFYFRVPFIYGHKYDFTSSRHTVVHLACICHSFHYIKRLLETLFVHRFSHGTMPLRNIFKNCTYYWGFAAWMAYYINHPLYTPPTYGAQQVKLALAIFVICQLGNFSIHMALRDLRPAGSKTRKIPYPTKNPFTWLFLLVSCPNYTYEVGSWIGFAIMTQCLPVALFSLVGFTQMTIWAKGKHRSYLKEFRDYPPLRMPIIPFLL
partner: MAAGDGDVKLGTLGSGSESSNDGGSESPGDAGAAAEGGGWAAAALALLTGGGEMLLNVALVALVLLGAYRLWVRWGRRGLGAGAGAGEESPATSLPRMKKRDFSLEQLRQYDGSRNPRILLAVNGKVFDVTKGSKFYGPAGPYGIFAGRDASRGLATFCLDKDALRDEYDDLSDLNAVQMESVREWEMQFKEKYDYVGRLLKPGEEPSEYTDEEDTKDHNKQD
B7: Golgi SNAP receptor complex member 2 (Homo sapiens), O14653 (parent)
chain: MDPLFQQTHKQVHEIQSCMGRLETADKQSVHIVENEIQASIDQIFSRLERLEILSSKEPPNKRQNARLRVDQLKYDVQHLQTALRNFQHRRHAREQQERQREELLSRTFTTNDSDTTIPMDESLQFNSSLQKVHNGMDDLILDGHNILDGLRTQRLTLKGTQKKILDIANMLGLSNTVMRLIEKRAFQDKYFMIGGMLLTCVVMFLVVQYLT
partner: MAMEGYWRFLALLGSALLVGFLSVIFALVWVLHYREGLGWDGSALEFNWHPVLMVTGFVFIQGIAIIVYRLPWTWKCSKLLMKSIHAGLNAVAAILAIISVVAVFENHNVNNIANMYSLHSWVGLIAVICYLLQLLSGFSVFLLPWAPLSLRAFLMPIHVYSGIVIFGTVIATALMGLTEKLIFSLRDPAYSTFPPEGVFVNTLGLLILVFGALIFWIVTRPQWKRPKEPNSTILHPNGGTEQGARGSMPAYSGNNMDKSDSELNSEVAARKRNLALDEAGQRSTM
B8: Golgi SNAP receptor complex member 2 (Homo sapiens), O14653 (parent)
chain: B7 chain
partner: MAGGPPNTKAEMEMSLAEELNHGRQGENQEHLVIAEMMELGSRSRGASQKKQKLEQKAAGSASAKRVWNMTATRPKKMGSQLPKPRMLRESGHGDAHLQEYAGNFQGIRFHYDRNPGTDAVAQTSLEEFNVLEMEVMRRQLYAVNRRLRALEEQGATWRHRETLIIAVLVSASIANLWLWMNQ

We go through 14 variants from IntAct's records for PubMed 32296183.

The variants in one experiment derive from B1. Conditions: with zg16_human ZG16, O60844.
With V94D, the “effect of a mutation on the interaction” value is given as “disrupting interaction strength”.

Variants of B2 are the subject of another experiment. Conditions: with katl1_human KATNAL1, Q9BW62.
katl1_human KATNAL1, Q9BW62, sequence (Q9BW62 whole entry): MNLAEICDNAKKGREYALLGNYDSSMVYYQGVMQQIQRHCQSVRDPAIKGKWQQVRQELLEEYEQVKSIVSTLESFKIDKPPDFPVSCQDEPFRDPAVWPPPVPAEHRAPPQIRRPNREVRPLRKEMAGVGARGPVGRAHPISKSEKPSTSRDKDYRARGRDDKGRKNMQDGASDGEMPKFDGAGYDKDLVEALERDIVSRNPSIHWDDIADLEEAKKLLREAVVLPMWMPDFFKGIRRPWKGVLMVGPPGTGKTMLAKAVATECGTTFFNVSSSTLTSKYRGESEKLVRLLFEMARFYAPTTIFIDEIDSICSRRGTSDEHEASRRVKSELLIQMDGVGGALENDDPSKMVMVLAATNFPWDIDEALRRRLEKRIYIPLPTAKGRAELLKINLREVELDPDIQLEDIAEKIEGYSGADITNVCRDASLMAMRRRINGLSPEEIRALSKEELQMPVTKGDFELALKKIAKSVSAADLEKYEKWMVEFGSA
With V94D, the “effect of a mutation on the interaction” value was “disrupting interaction strength”.

In another experiment the parent is B2. Conditions: with pax6_human PAX6, P26367.
pax6_human PAX6, P26367, sequence (P26367 whole entry): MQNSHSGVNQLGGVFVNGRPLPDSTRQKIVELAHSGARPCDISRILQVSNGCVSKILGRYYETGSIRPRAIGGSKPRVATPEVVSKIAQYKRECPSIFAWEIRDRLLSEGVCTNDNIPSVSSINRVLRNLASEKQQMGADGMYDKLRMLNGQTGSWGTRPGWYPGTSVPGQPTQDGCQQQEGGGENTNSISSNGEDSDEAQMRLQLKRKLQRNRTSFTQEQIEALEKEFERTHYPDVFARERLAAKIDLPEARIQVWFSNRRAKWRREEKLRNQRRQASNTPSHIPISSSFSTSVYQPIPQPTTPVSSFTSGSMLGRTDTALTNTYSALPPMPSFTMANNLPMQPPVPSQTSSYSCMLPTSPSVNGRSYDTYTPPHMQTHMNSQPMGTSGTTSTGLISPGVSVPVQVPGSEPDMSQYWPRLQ
V94D: the “effect of a mutation on the interaction” value was “with no effect”.

In a further experiment the parent is B2. Conditions: with taso2_human TASOR2, Q5VWN6.
Turning to V94D, the “effect of a mutation on the interaction” value is reported as “with no effect”.

In the next experiment the parent is B2. Conditions: with pnma5_human PNMA5, Q96PV4.
pnma5_human PNMA5, Q96PV4, sequence (Q96PV4 whole entry): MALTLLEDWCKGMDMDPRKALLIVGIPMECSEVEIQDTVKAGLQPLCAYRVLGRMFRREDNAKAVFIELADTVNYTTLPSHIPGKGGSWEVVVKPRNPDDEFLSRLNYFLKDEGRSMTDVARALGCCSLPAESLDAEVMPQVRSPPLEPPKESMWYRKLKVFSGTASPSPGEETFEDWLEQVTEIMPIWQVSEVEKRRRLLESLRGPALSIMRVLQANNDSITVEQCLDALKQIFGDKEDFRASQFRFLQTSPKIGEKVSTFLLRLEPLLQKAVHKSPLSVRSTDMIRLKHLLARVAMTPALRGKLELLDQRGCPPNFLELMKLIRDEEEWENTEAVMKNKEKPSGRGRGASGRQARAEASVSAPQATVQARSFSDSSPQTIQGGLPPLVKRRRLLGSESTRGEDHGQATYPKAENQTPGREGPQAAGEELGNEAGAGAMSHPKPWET
With V94D, the “effect of a mutation on the interaction” value is on record as “with no effect”.

The variants in the next experiment derive from B2. Conditions: with ms18b_human OIP5, O43482.
ms18b_human OIP5, O43482, sequence (O43482 whole entry): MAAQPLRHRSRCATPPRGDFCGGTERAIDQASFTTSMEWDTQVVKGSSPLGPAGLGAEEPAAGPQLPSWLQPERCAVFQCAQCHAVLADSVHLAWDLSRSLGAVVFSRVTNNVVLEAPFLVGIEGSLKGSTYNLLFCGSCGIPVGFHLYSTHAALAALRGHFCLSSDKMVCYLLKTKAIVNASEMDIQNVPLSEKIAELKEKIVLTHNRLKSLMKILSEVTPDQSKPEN
Turning to V94D, the “effect of a mutation on the interaction” value is recorded as “disrupting interaction strength”.

Variants of B2 are the subject of the next experiment. The conditions noted are these: with cq050_human C17orf50, Q8WW18.
cq050_human C17orf50, Q8WW18, sequence (Q8WW18 whole entry): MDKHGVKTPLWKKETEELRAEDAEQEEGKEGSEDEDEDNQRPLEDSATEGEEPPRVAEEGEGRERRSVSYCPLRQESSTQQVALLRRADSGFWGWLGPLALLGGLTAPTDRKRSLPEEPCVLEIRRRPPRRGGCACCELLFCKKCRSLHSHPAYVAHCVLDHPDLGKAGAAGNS
As to V94D, the “effect of a mutation on the interaction” value is “disrupting interaction strength”.

The variants in the next experiment derive from B2. The conditions noted are these: with mb3l1_human MBD3L1, Q8WWY6.
mb3l1_human MBD3L1, Q8WWY6, sequence (Q8WWY6 whole entry): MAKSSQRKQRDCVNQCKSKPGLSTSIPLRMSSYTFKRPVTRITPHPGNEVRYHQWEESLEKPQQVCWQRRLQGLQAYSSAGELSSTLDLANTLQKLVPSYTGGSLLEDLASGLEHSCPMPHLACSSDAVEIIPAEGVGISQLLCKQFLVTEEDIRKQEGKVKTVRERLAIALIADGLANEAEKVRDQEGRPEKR
With V94D, the “effect of a mutation on the interaction” value is on record as “with no effect”.

The variants in the next experiment derive from B2. The conditions noted are these: with PRR5, P85299-2.
PRR5, P85299-2, sequence (P85299 other isoform, or with tags, fused parts or gaps): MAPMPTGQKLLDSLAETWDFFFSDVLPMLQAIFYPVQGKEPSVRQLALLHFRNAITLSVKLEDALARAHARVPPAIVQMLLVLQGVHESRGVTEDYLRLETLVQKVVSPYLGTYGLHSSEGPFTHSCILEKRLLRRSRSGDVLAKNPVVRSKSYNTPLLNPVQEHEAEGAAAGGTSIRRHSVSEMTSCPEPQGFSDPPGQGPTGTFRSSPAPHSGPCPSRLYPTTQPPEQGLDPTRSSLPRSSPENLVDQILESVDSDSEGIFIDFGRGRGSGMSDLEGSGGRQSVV
For the variant V94D, the “effect of a mutation on the interaction” value is “disrupting interaction strength”.

In a further experiment the parent is B2. Conditions: with cenps_human CENPS.
Turning to V94D, the “effect of a mutation on the interaction” value was “disrupting interaction strength”.

Another experiment covers variants of B2. Conditions: with zn552_human ZNF552, Q9H707.
zn552_human ZNF552, Q9H707, sequence (Q9H707 whole entry): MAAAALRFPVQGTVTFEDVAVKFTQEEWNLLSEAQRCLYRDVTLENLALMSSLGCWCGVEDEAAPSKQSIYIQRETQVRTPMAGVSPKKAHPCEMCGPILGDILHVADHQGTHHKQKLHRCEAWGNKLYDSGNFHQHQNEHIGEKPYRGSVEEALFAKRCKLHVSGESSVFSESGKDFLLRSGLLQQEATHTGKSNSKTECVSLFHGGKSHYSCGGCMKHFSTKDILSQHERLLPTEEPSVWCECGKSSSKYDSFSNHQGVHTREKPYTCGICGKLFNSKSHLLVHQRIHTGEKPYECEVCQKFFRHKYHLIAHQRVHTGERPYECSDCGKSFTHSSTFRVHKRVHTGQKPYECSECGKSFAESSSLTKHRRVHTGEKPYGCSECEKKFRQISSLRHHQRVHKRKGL
For V94D, the “effect of a mutation on the interaction” value is on record as “disrupting interaction strength”.

Variants of B3 are the subject of a further experiment. Conditions: with ubp25_human USP25, Q9UHP3.
ubp25_human USP25, Q9UHP3, sequence (Q9UHP3 whole entry): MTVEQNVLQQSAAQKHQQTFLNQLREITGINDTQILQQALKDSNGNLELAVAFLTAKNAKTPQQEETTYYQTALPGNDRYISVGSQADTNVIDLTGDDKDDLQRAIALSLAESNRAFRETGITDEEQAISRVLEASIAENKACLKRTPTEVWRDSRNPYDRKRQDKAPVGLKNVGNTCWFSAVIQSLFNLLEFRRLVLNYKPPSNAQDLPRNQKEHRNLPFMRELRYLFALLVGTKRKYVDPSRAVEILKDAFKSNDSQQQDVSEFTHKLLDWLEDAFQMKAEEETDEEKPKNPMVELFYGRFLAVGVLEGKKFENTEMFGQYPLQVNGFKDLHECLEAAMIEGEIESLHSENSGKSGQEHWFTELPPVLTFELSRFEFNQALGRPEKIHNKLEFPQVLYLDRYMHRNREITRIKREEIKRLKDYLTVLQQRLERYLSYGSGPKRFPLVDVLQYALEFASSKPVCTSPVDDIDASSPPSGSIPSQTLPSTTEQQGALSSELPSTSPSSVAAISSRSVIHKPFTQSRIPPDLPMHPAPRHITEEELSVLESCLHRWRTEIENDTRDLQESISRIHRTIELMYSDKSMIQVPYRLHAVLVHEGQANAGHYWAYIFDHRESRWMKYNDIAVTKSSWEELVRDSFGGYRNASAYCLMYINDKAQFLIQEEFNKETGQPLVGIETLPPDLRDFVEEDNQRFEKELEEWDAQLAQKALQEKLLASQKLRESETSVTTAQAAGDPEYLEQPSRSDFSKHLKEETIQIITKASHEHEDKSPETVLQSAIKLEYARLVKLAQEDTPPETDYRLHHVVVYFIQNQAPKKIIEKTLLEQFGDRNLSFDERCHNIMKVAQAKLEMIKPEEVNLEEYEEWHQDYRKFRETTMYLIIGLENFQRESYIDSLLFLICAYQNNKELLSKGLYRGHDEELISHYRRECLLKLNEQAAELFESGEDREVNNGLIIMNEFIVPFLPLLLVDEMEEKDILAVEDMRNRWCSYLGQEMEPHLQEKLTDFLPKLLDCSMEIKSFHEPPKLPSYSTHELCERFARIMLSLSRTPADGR
Consider E142K, for which the “effect of a mutation on the interaction” value is reported as “with no effect”.
Still for that read-out and setting: for I91V the value was “with no effect”.
Still for that read-out and setting: with Y371H the entry was “with no effect”; with R28W, “with no effect”.
Same read-out and setting: with E85K the entry was “with no effect”.

Another experiment covers variants of B3. Conditions: with ar13b_human ARL13B.
E142K: the “effect of a mutation on the interaction” value is “disrupting interaction strength”.
Still for that read-out and setting: for I91V the value was “with no effect”.
Still for that read-out and setting: for Y371H the value was “with no effect”; for R28W, “disrupting interaction strength”.
For the variant E85K, the “effect of a mutation on the interaction” value is “disrupting interaction strength”.

Variants of B3 are the subject of a further experiment. The conditions noted are these: with FGA.
Consider E142K, for which the “effect of a mutation on the interaction” value is listed as “with no effect”.
I91V: the “effect of a mutation on the interaction” value was “with no effect”.
Still for that read-out and setting: for Y371H the value was “with no effect”.
Still for that read-out and setting: for R28W the value was “with no effect”; for E85K, “with no effect”.

A further experiment covers variants of B3. The conditions noted are these: with PCYT1B.
For the variant E142K, the “effect of a mutation on the interaction” value was “with no effect”.
For I91V, the “effect of a mutation on the interaction” value is given as “with no effect”.
On the same count and under the same terms, for Y371H the value was “with no effect”.
Turning to R28W, the “effect of a mutation on the interaction” value is on record as “with no effect”.
With E85K, the “effect of a mutation on the interaction” value was “with no effect”.

The next experiment covers variants of B3. The conditions noted are these: with zch12_human ZCCHC12, Q6PEW1.
zch12_human ZCCHC12, Q6PEW1, sequence (Q6PEW1 whole entry): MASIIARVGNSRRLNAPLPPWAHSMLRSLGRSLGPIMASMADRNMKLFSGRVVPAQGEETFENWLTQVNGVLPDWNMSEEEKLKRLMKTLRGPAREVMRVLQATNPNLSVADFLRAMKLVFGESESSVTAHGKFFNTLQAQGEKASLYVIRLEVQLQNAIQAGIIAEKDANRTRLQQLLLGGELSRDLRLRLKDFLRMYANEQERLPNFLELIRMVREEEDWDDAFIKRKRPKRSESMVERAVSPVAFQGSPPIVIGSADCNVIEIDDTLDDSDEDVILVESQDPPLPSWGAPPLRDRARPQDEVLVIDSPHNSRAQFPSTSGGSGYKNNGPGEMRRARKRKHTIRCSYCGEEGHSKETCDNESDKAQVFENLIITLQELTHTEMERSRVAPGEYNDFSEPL
Turning to E142K, the “effect of a mutation on the interaction” value is listed as “with no effect”.
With I91V, the “effect of a mutation on the interaction” value is listed as “with no effect”.
On the same count and under the same terms, for Y371H the value was “with no effect”; for R28W, “with no effect”.
The same measure, in the same setting: with E85K the entry was “with no effect”.

Variants of B4 are the subject of a further experiment. Conditions: with FAM209A.
On to L47F, for which the “effect of a mutation on the interaction” value was “with no effect”.

In a further experiment the parent is B5. The conditions noted are these: with EVI2B.
For L47F, the “effect of a mutation on the interaction” value was “with no effect”.
Same read-out and setting: for R6T the value was “with no effect”.
The same measure, in the same setting: for G123D the value was “with no effect”.

In a further experiment the parent is B6. The conditions noted are these: with pgrc2_human PGRMC2, O15173.
On to P182L, for which the “effect of a mutation on the interaction” value was “with no effect”.

Variants of B7 are the subject of another experiment. The conditions noted are these: with cybr1_human CYBRD1, Q53TN4.
For the variant G144W, the “effect of a mutation on the interaction” value is recorded as “with no effect”.

The variants in a further experiment derive from B8. Conditions: with fate1_human FATE1, Q969F0.
G144W: the “effect of a mutation on the interaction” value is recorded as “with no effect”.
